Experimental data taken from the supplement of paper PMC9170038.

tested on: MS2 coat protein; assay: apparent KD of MS2 coat protein, switch OFF state (with FMN for OFF switches, without FMN for ON switches); designed switch direction (-1 OFF switch, 1 ON switch): 1; higher = weaker reporter binding; conditions: FMN input: 0 or 200 uM; Eterna round: R93 (includes R88 designs)
Method in brief: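 Designed RNA switches were transcribed on-chip from Illumina sequencing clusters. SNAP-549-labelled MS2 coat protein was titrated onto them in twofold steps from 0.7 or 1.5 nM to 3 µM in 100 mM Tris-HCl pH 7.5, 80 mM KCl, 4 mM MgCl2, either without or with constant ligand. Apparent KD reflects the per-design median of normalised cluster binding-curve fits.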

Sequence | apparent KD of MS2 coat protein
AUGAAAGUAACACAGGAUAUCCAGGAUACAACAUGAGGAUCACCCAUGUACAUACGAACGUAUAAGGAGAAGGGUGGAUGAUCUUC [ss2-2] | 0.0593 µM
AAUAAACAUGAGGAUCACCCAUGUUUUAAUAGUUGAGGAUAUAAGGGUGAAAAUAGCAUAUUAGAAGGCGAGUGUA [SameState1 Malc#14] | 0.0317 µM
UAAGACGUGCAUCAGGAUAUGUUCCGAGGCACAUGAGGAUCACCCAUGUGGACGAAGCCUCGGGCACAGAAGGGAUCACUCAGAC [Laarma] | 0.0204 µM
GACUGACAUGAGGAUCACCCAUGUAUUCGAGCAUGAGGAUAUAUGACACGUCAUCGACGGAUAGAAGGCAUGGAUG [JR_SS001_Sub1211] | 0.208 µM
AGGUAACAUGAGGAUCACCCAUGUACCGAUAAUGCAGGAUAUCGACACGAAAAUACGUGUCGAGAAGGGCAUGAAA [SS1 MT 23] | 0.0135 µM
AAAAAAAAAGUCGAGGAUAUCCACAUGGUGACAUGAGGAUCACCCAUGUGAAGAAAAGCACAUGAGGAGAAGGCGACAAAAAAAA [Same State 2.7b (Tightrope mod)] | 1.11 µM
AAAAAACAUGAGGAUCACCCAUGUCGAAAGACGUGAGGAUAUGUACAGACUUCGGUCUGUACAGAAGGCACGAAAA [SS1 - 1038] | 0.0604 µM
AACUAACAUGAGGAUCACCCAUGUAUUCAAACAUGAGGAUAUAUAACACAUCAUCGACGGAUAGAAGGCAUAAAUA [JR_SS001_Sub1206] | 0.0866 µM
AACAAUCUAUCUGAGGAUAUAUGUCGAAAGACAUGAGGAUCACCCAUGUGAAAACAUGAAAAAACAUAGAAGGCAGAUAGAUUGA [SS2: 1136] | 0.0543 µM
GACAAACAUGAGGAUCACCCAUGUAGACAUAUGGGAGGAUAUACACAGACGAAAGUCAAAGUAGAAGGCCUACAAG [77%, Mat - Mod of Eli - With 4 more C's] | 0.0913 µM
AGAAAUAAAUGAGAGGAUAUCCAAAAGAAAACAUGAGGAUCACCCAUGUAAAAGAAAAUAAAAUGGGAGAAGGCUCAAAAUAAAG [80%, More Helter Skelter 2] | 0.0585 µM
AAAAGACAUGAGGAUCACCCAUGUGAAAACGUGCGAGGAUAUGUAUGGAAACUAUACUGUACAGAAGGCGCGUGUC [SS1 - 82] | 0.0254 µM
AAAUAAAGGACUGAGGAUAUACCACAUGAAACAUGAGGAUCACCCAUGUUAAAAAACAGAGGGUGGUAGAAGGCAGUCCACAAAC [Same State 2.5e ( so lets mod hyphema)] | 0.0158 µM
CGCGAACAUGAGGAUCACCCAUGUAAAUCGCAUGUAGGAUAUGGGAUACACAUUAAGAUCCCAGAAGGGCGGAAAA [Leeroner] | 0.0235 µM
CGUAAACAUGAGGAUCACCCAUGUCAAUAUGAUCAAGGAUAUGGGUUCCGAAGUGGAACACCAGAAGGUGAAUAGU [Inrea] | 0.58 µM
AAAACACAUGAGGAUCACCCAUGUGCCUAACUCGCAGGAUAUUUCUCGAUUAAAUGAUAGGAAGAAGGGUGAUAAA [Nob's Hobby 37 - Jieux - Same State 1] | 0.0394 µM
AAAUAGUGCCUGGAGGAUAUGUCGCAUGACACAUGAGGAUCACCCAUGUGGUAACACAGAGGGUGGCAGAAGGCUGGGUGCAAAC [Mod 4 of Pariah 6 (Round1) by Hyphema] | 0.26 µM

Sequence | apparent KD of MS2 coat protein
GACAGACAUGAGGAUCACCCAUGUACAAACGUACAAGGAUAUGUGUGGAAACCGUACUAUACAGAAGGUGUAUGUC [SS1 - 91] | 0.0805 µM
CAGGACGUAGGAUAGGAUAUAUGAAUAAUUACAUGAGGAUCACCCAUGUCCAUUUAUAUGGGAACAUAGAAGGGUUGUGGUUAUG [Mat - Same state - Malcolm Mod - D144] | 0.315 µM
AGGAAACAUGAGGAUCACCCAUGUAAAAAUAUGGGAGGAUAUACAAAGACGAAAGUCAAAGUAGAAGGCCUAAAAG [77%, Mat - Mod of Eli, 4] | 0.0601 µM
AAAAAACAUGAGGAUCACCCAUGUCAAAAGACGUGAGGAUAUGUACAGACUUCGGUCUGUACAGAAGGCACGUAAA [SS1 - 1039] | 0.0257 µM
UAACAACAUGAGGAUCACCCAUGUCAAACAAAUCGAGGAUAUGGGCAGGAUUCUUCCUAUCUAGAAGGCGAAAACA [Ricexebi] | 0.0832 µM
UGGAAGGAGAGAGAGGAUAUCCAAAGGAAAACAUGAGGAUCACCCAUGUAGAAGGUAGGAAAUUGGGAGAAGGCUCAAGAGAGAG [salish99-ss2-117] | 0.0275 µM
CAUCAUGCGCCUAAGGAUAUGUCUCACAAGACAUGAGGAUCACCCAUGUAGAACAAAUAAGUGAUGCAGAAGGUGGAGCGCAUGC [Edcequed] | 0.137 µM
UAAAAUAAAACAUAGGAUAUCAAAAUAAAAACAUGAGGAUCACCCAUGUGAAAACAUGAGAAGGAUGAGAAGGAAAAUAAAAUAA [Meechl SS2 R2 m1] | 0.0516 µM
AAAAAAUAAAAAAAGGAUAUAAAAGGUAGUACAUGAGGAUCACCCAUGUUCUACCAAAAAAUAAAAAAGAAGGAAAAAUAAAAAA [SS2: MS2 15] | 0.0164 µM
CGGAGACAUGAGGAUCACCCAUGUGAGAAGAGGCGAGGAUAUCGAAAAAAAAAAAAAAAACGAGAAGGCGCGAGAU [salish99-SS1-013] | 0.0362 µM
GAAAAACAUGAGGAUCACCCAUGUAGAAAUAUGGGAGGAUAUACAAAGACGAAAGUCAAAGUAGAAGGCCUAUAAG [Starry Same State 1.5 (mat747 round 1 mod)] | 0.0333 µM
AAAAAACAUGAGGAUCACCCAUGUCGAAAGACGUGAGGAUAUGUACAGACUUCGGUCUGUACAGAAGGCACGUCAA [SS1 - 1044] | 0.0248 µM
GAAAAACAUGAGGAUCACCCAUGUAAGAUAAACACAGGAUAUGCGAAAAUAAAUAAAUAAGCAGAAGGGUGAAAAG [Mat - Same State 1 - Tesla mod - 78] | 0.0374 µM
AUAACACAUGAGGAUCACCCAUGUAGAAACAAGUCAGGAUAUCCGAUCCACAUGUGAAAAGGAGAAGGGACACUAA [SS 1 Tesla 6] | 0.146 µM
GGGAGACAUGAGGAUCACCCAUGUGAGAAGAGGCGAGGAUAUCGAAAGAAAGAAGAGAAACGAGAAGGCGCGAGAU [salish99-SS1-053] | 0.067 µM
AAAAUACAUGAGGAUCACCCAUGUGAGAAAAACGCAGGAUAUGCCCGUUGAAAAAGGCGGGCAGAAGGGUGCCGAA [SameState1-III] | 0.0506 µM
